The source of these data is article PMC7484176.

For the assay, the target named is wild-type FtrA from Brucella abortus 2308 (Brucella abortus 2308). The assay is described as follows: SEC.

As to “wild-type FtrA from Brucella abortus 2308 (natural protein)”, the stoichiometry N amounted to 2.
